Sequences and labels used below:
B1: MYT1342 (antibody, V domains shown)
VH: QVQLVQSGAEVKKPGASVKVSCKASGYTFTNYHINWVRQAPGQGLEWIGWIYPGDGSTKYNEKFKAKATLTADTSTSTAYMELRSLRSDDTAVYYCASGYEDAMDYWGQGTTVTVSS
VL: DIQMTQSPSSLSASVGDRVTINCKASQDINSYLSWFQQKPGKAPKTLIYRANRLVDGVPSRFSGSGSGQDYTLTISSLQPEDFATYYCLQYDEFPLTFGGGTKVEIK
notes: IgG; vadastuximab VH variant #8 (D33H)
B2: MYT1362 (antibody, V domains shown)
VH: QVQLVQSGAEVKKPGASVKVSCKASGYTFTNYDINWVRQAPGQGLEWIGWIYPGDGSTKYNEKFKAKATLTADTSTSTAYMELRSLRSDDTAVYYCHSGYEDAMDYWGQGTTVTVSS
VL: DIQMTQSPSSLSASVGDRVTINCKASQDINSYLSWFQQKPGKAPKTLIYRANRLVDGVPSRFSGSGSGQDYTLTISSLQPEDFATYYCLQYDEFPLTFGGGTKVEIK
notes: IgG; vadastuximab VH variant #28 (A97H)
B3: MYT1344 (antibody, V domains shown)
VH: QVQLVQSGAEVKKPGASVKVSCKASGYTFTNYDIHWVRQAPGQGLEWIGWIYPGDGSTKYNEKFKAKATLTADTSTSTAYMELRSLRSDDTAVYYCASGYEDAMDYWGQGTTVTVSS
VL: DIQMTQSPSSLSASVGDRVTINCKASQDINSYLSWFQQKPGKAPKTLIYRANRLVDGVPSRFSGSGSGQDYTLTISSLQPEDFATYYCLQYDEFPLTFGGGTKVEIK
notes: IgG; vadastuximab VH variant #10 (N35H)
B4: MYT2633 (antibody, V domains shown)
VH: QVQLQQPGAEVVKPGASVKMSCKASGYTFTSYYIHWIKQTPGQGLEWVGVIYPGNDDISYNQKFQGKATLTADKSSTTAYMQLSSLTSEDSAVYYCAREVRLRYFDVWGQGTTVTVSS
VL: EIVLTQSPGSLAVSPGERVTMSCKSSQSVFFSSSQKNYLHWYQQIPGQSPRLLIYWASTRESGVPDRFTGSGSGTDFTLTISSVQPEDLAIYYCHQYLSSRTFGQGTKLEIK
notes: IgG; IMGN779 VL variant #17 (A40H)
B5: MYT0504 (antibody, V domains shown)
VH: EVQLVQSGAEVKKPGSSVKVSCKASGYTITDSNIHWVRQAPGQSLEWIGYIYPYNGGTDYNHKFKNRATLTVDNPTNTAYMELSSLRSEDTDFYYCVNGNPWLAYWGQGTLVTVSS
VL: DIQLTQSPSTLSASVGDRVTITCRASESLDNYGIRFLTWFQQKPGKAPKLLMYAASNQGSGVPSRFSGSGSGTEFTLTISSLQPDDFATYYCQQTKEVPWSFGQGTKVEVK
notes: IgG; gemtuzumab VH variant #23 (Q62H)
B6: MYT0507 (antibody, V domains shown)
VH: EVQLVQSGAEVKKPGSSVKVSCKASGYTITDSNIHWVRQAPGQSLEWIGYIYPYNGGTDYNQKFHNRATLTVDNPTNTAYMELSSLRSEDTDFYYCVNGNPWLAYWGQGTLVTVSS
VL: DIQLTQSPSTLSASVGDRVTITCRASESLDNYGIRFLTWFQQKPGKAPKLLMYAASNQGSGVPSRFSGSGSGTEFTLTISSLQPDDFATYYCQQTKEVPWSFGQGTKVEVK
notes: IgG; gemtuzumab VH variant #26 (K65H)
B7: MYT0510 (antibody, V domains shown)
VH: EVQLVQSGAEVKKPGSSVKVSCKASGYTITDSNIHWVRQAPGQSLEWIGYIYPYNGGTDYNQKFKNRATLTVDNPTNTAYMELSSLRSEDTDFYYCVHGNPWLAYWGQGTLVTVSS
VL: DIQLTQSPSTLSASVGDRVTITCRASESLDNYGIRFLTWFQQKPGKAPKLLMYAASNQGSGVPSRFSGSGSGTEFTLTISSLQPDDFATYYCQQTKEVPWSFGQGTKVEVK
notes: IgG; gemtuzumab VH variant #29 (N98H)
B8: MYT0516 (antibody, V domains shown)
VH: EVQLVQSGAEVKKPGSSVKVSCKASGYTITDSNIHWVRQAPGQSLEWIGYIYPYNGGTDYNQKFKNRATLTVDNPTNTAYMELSSLRSEDTDFYYCVNGNPWLHYWGQGTLVTVSS
VL: DIQLTQSPSTLSASVGDRVTITCRASESLDNYGIRFLTWFQQKPGKAPKLLMYAASNQGSGVPSRFSGSGSGTEFTLTISSLQPDDFATYYCQQTKEVPWSFGQGTKVEVK
notes: IgG; gemtuzumab VH variant #35 (A104H)
B9: MYT0515 (antibody, V domains shown)
VH: EVQLVQSGAEVKKPGSSVKVSCKASGYTITDSNIHWVRQAPGQSLEWIGYIYPYNGGTDYNQKFKNRATLTVDNPTNTAYMELSSLRSEDTDFYYCVNGNPWHAYWGQGTLVTVSS
VL: DIQLTQSPSTLSASVGDRVTITCRASESLDNYGIRFLTWFQQKPGKAPKLLMYAASNQGSGVPSRFSGSGSGTEFTLTISSLQPDDFATYYCQQTKEVPWSFGQGTKVEVK
notes: IgG; gemtuzumab VH variant #34 (L103H)
B10: MYT0508 (antibody, V domains shown)
VH: EVQLVQSGAEVKKPGSSVKVSCKASGYTITDSNIHWVRQAPGQSLEWIGYIYPYNGGTDYNQKFKHRATLTVDNPTNTAYMELSSLRSEDTDFYYCVNGNPWLAYWGQGTLVTVSS
VL: DIQLTQSPSTLSASVGDRVTITCRASESLDNYGIRFLTWFQQKPGKAPKLLMYAASNQGSGVPSRFSGSGSGTEFTLTISSLQPDDFATYYCQQTKEVPWSFGQGTKVEVK
notes: IgG; gemtuzumab VH variant #27 (N66H)
B11: MYT0506 (antibody, V domains shown)
VH: EVQLVQSGAEVKKPGSSVKVSCKASGYTITDSNIHWVRQAPGQSLEWIGYIYPYNGGTDYNQKHKNRATLTVDNPTNTAYMELSSLRSEDTDFYYCVNGNPWLAYWGQGTLVTVSS
VL: DIQLTQSPSTLSASVGDRVTITCRASESLDNYGIRFLTWFQQKPGKAPKLLMYAASNQGSGVPSRFSGSGSGTEFTLTISSLQPDDFATYYCQQTKEVPWSFGQGTKVEVK
notes: IgG; gemtuzumab VH variant #25 (F64H)
B12: MYT0505 (antibody, V domains shown)
VH: EVQLVQSGAEVKKPGSSVKVSCKASGYTITDSNIHWVRQAPGQSLEWIGYIYPYNGGTDYNQHFKNRATLTVDNPTNTAYMELSSLRSEDTDFYYCVNGNPWLAYWGQGTLVTVSS
VL: DIQLTQSPSTLSASVGDRVTITCRASESLDNYGIRFLTWFQQKPGKAPKLLMYAASNQGSGVPSRFSGSGSGTEFTLTISSLQPDDFATYYCQQTKEVPWSFGQGTKVEVK
notes: IgG; gemtuzumab VH variant #24 (K63H)
B13: MYT0514 (antibody, V domains shown)
VH: EVQLVQSGAEVKKPGSSVKVSCKASGYTITDSNIHWVRQAPGQSLEWIGYIYPYNGGTDYNQKFKNRATLTVDNPTNTAYMELSSLRSEDTDFYYCVNGNPHLAYWGQGTLVTVSS
VL: DIQLTQSPSTLSASVGDRVTITCRASESLDNYGIRFLTWFQQKPGKAPKLLMYAASNQGSGVPSRFSGSGSGTEFTLTISSLQPDDFATYYCQQTKEVPWSFGQGTKVEVK
notes: IgG; gemtuzumab VH variant #33 (W102H)
B14: MYT0517 (antibody, V domains shown)
VH: EVQLVQSGAEVKKPGSSVKVSCKASGYTITDSNIHWVRQAPGQSLEWIGYIYPYNGGTDYNQKFKNRATLTVDNPTNTAYMELSSLRSEDTDFYYCVNGNPWLAHWGQGTLVTVSS
VL: DIQLTQSPSTLSASVGDRVTITCRASESLDNYGIRFLTWFQQKPGKAPKLLMYAASNQGSGVPSRFSGSGSGTEFTLTISSLQPDDFATYYCQQTKEVPWSFGQGTKVEVK
notes: IgG; gemtuzumab VH variant #36 (Y105H)
B15: MYT0512 (antibody, V domains shown)
VH: EVQLVQSGAEVKKPGSSVKVSCKASGYTITDSNIHWVRQAPGQSLEWIGYIYPYNGGTDYNQKFKNRATLTVDNPTNTAYMELSSLRSEDTDFYYCVNGHPWLAYWGQGTLVTVSS
VL: DIQLTQSPSTLSASVGDRVTITCRASESLDNYGIRFLTWFQQKPGKAPKLLMYAASNQGSGVPSRFSGSGSGTEFTLTISSLQPDDFATYYCQQTKEVPWSFGQGTKVEVK
notes: IgG; gemtuzumab VH variant #31 (N100H)

The target of one experiment is T1, CD33 (Sino Biological, Cat #12238-H08H) (UniProt P20138 18-259). Description: BLI, IgG captured on anti-human Fc sensor, pH 7.4 and pH 5.4. On the technique in general: Biolayer interferometry detects binding as a change in optical thickness at a sensor tip.
T1 sequence (P20138 18-259 limits assumed): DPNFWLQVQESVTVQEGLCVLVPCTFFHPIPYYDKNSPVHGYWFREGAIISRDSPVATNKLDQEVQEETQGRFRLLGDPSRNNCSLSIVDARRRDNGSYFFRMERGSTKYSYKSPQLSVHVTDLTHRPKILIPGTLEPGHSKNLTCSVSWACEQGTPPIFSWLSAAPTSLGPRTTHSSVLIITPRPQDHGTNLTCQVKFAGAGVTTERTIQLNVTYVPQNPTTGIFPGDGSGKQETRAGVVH
Regarding B1, the binding result is “no binding (tested: 50 nM CD33)”.

Take B2: the binding result is given as “no binding (tested: 50 nM CD33)”. Still for that read-out and setting: in the case of B3 it was “no binding (tested: 50 nM CD33)”; in that of B4, “no binding (tested: 50 nM CD33)”.

Another experiment has as its target T1, CD33 (Sino Biological, Cat #12238-H08H). Description: BLI, IgG captured on anti-human Fc sensor, 50 nM CD33, pH 7.4 vs pH 5.0. From the text:
Multiple CD33-binding monoclonal antibodies have been described in the literature and can be used as a template for engineering pH-dependent binding (Hamann P R et al (2002) “Gemtuzumab ozogamicin, a potent and selective anti-CD33 antibody-calicheamicin conjugate for treatment of acute myeloid leukemia.” Bioconjug Chem 13(1):47-58). Gemtuzumab (Heavy chain SEQ ID NO: 1, Light chain SEQ ID NO: 2) was selected as a CD33-binding monoclonal antibody for pH engineering via histidine scanning. Briefly, CDRs in the heavy chain were identified using the methods described by Kabat et al (Kabat et al. (1992) Sequences of Proteins of Immunological Interest, DIANE publishing) and IMGT (Lefranc M P (1999) “The IMGT unique numbering for Immunoglobulins, T cell receptors and Ig-like domains” The Immunologist 7, 132-136), and for each CDR, residues falling under either or both Kabat and IMGT CDR definitions were called as CDR residues. To generate pH-dependent sequence variants, individual amino acid residues within the heavy chain CDRs were systematically substituted with a histidine, one at a time (MYT0482-MYT0517). In cases where the starting CDR residue was a histidine, it was mutated to an alanine. Antibody variants with only one histidine or alanine mutation in a heavy chain CDR were generated by co-transfection of Expi293 cells with a) one heavy chain sequence variant, and b) the corresponding starting ABPC light chain using methods known to the art. After allowing for four days of protein expression, cell culture supernatants were collected, quantified by SDS-PAGE analysis, (FIG. 1), and the pH dependence of the variant was evaluated using biolayer interferometry (BLI) on an Octet RED 384 instrument. Briefly, cell culture supernatants were normalized to an antibody expression level of 25 μg/mL, and captured on an anti-human Fc sensor (Forte Bio). A baseline was established using 1×PBST (50 mM Potassium Phosphate Buffer+150 mM NaCl+0.05% Tween 20) pH 7.4, and the sensor was associated with 50 nM of CD33 (Sino Biological, Cat #12238) in 1×PBST pH 7.4 for 120 sec to generate an association curve. In the dissociation phase, the antibody-antigen complex on the sensor was exposed to 1×PBST pH 7.4 for 300-600 sec. Baseline, association, and dissociation were repeated using 1×MES (100 mM MES Buffer+150 mM NaCl+0.05% Tween 20) pH 5.0 throughout in a separate condition.
For B5, the binding result is recorded as “binds”. Same read-out and setting: in the case of B6 it was “binds”; in that of B7, “binds”.

As for B8, the binding result was “binds”. On the same count and under the same terms, in the case of B9 it was “binds”; in that of B10, “binds”.

For the molecule B11, the binding result is given as “binds”.

Consider B12, for which the binding result was “binds”.

Regarding B13, the binding result was “binds”. The same measure, in the same setting: in the case of B14 it was “binds”. Same read-out and setting: in the case of B15 it was “binds”.

These data come from US20220324969A1 (MYTHIC THERAPEUTICS, published 2022).
